{
  "source": "the DeepSol protein solubility set",
  "data": [
    {"experiment": "soluble on expression in E. coli; label from the status in PepcDB or PDB records", "values": [
      {"sequence": "MVYRKVTISTKVFENTNAIVAWVSGRPVLLSKYEGKYYAMDAVCGHMGCAILDKVEGKEAVCPAHRARYDVTTGKKTADAVIRPEVKCEYNEASDTLKVYPVRENNGFLEVDMP", "soluble on expression in E. coli": "not soluble"},
      {"sequence": "MGSDKIHHHHHHMKRLAFVISSLGAGGAEKVLSLMSHYLAQKGISLTLISLGDSKSFYPLPAQAKIIALGECRSSKGVIDSLFQNLRRIQKLRQALRAARPDLILSFMTETNILSIIAAKSLGIPVIASEHTNYLWQPSRLWNRLRHLLYPLASATTLLTQRDKENHYGFLPQAKILPNPFDFPPLSPTPKEKIILGVGRLIKDKGFDRLIRAFSRISIGDYQLLIAGEGEERVRLEELIQSLGMEEKIHLLGSQKEIYPLYERASIFVLSSSMEGLSNALIEAMSMGCAVISFDCPYGPSEVITPQENGLLVPLHDEVALQEAMERLIQEEPLRQKLSQNAPKVRERFAIDRVMPQWEELMRSILDSTPSCSKES", "soluble on expression in E. coli": "not soluble"},
      {"sequence": "MALVKEVLVVLNRLSPFELQESWDNSGLNVGSENSEFSEIVACLEITLKIALNAPQNALIITHHPLIFKPLKTLNDEIYPGNILKILIQKNVSVISMHTNFDKTHLNKHFAHALLEFDGLVEKGLMLVKENANIEFDALVKKIKSSLGVGSLACVKSSQTIKDLAFVCGSGASMFSSLKAQSCLITGDVKYHDAMIAQSLGISLIDATHYYSERGFALIVAEILHSFNYLVTIENFKNPLQIILEHHHHHH", "soluble on expression in E. coli": "soluble"},
      {"sequence": "MLTRTDGKGSKVLLIAAMDTKGTEARYIESWLAKAGFTTLIMDMGIRGKRPGPVAVTRDEVLRAAGKTWDDIQNVTSEGDAVDIMISGGVKCALALYKADLIQGVISLGGTMGTTLGTGVMRAFPIGFPKVMISTIAAKDTEAFIGNMDIFMLNSVSDLAGLNRITRKVLRNGALAIAGLVREREFHDEFSRPLAVLTTLGTTEATAARMRIHFEAWGYESVTFHTTGTGGQAMERMVNFEPVSAVVDLSLHELIDHHFGGAFDPGPERGRAALQKGIPTVIVPGNIDFLVTGPMAQAQIYFPGRRGHKHNANITCVRTSLEEIQRIAEIMAGYCNESTGPVAVLVPMKGFSCLDHEDGPQPDPEGPRVFAETFARALTRTIHFETVPLHINDEAFSEVIVGALQKIGGLRKIEADRLPSRQPATWSPYSSVHTLDRFSGNQHTTTETTGDALAALEHHHHHH", "soluble on expression in E. coli": "not soluble"},
      {"sequence": "MGSSHHHHHHGGTGENLYFQGGSGSNRKKVAYFHDPDIGSYYYGAGHPMKPQRIRMTHSLIVSYNLYKYMEVYRPHKSDVNELTLFHDYEYIDFLSSISLENYREFTYQLKRFNVGEATDCPVFDGLFQFQQSCAGASIDGASKLNHHCADICVNWSGGLHHAKMSEASGFCYINDIVLGILELLKYHARVMYIDIDVHHGDGVEEAFYVTHRVMTVSFHKFGDYFPGTGDITDVGVNHGKYYSVNVPLNDGMTDDAFVDLFKVVIDKCVQTYRPGAIIIQCGADSLTGDRLGRFNLTIKGHARCVEHVRSYNIPLLVLGGGGYTIRNVSRCWAYETGVVLNKHHEMPDQISLNDYYDYYAPDFQLHLQPSNIPNYNSPEHLSRIKMKIAENLRHIEHAPGVQFSYVPPDFFNSDIDDESDKNQYELKDDSGGGRAPGTRAKEHSTTHHLRRKNYDDDFFDLSDRDQSIVPY", "soluble on expression in E. coli": "not soluble"},
      {"sequence": "MSLVMKASVDDDDSGWELSMPEKMEKSNTNWVDITQDFEEACRELKLGELLHDKLFGLFEAMSAIEMMDPKMDAGMIGNQVNRKVLNFEQAIKDGTIKIKDLTLPELIGIMDTCFCCLITWLEGHSLAQTVFTCLYIHNPDFIEDPAMKAFALGILKICDIAREKVNKAAVFEEEDFQSMTYGFKMANSVTDLRVTGMLKDVEDDMQRRVKSTRSRQGEERDPEVELEHQQCLAVFSRVKFTRVLLTVLIAFTKKETSAVAEAQKLMVQAADLLSAIHNSLHHGIQAQNDTTKGDHPIMMGFEPLVNQRLLPPTFPRYAKIIKREEMVNYFARLIDRIKTVCEVVNLTNLHCILDFFCEFSEQSPCVLSRSLLQTTFLVDNKKVFGTHLMQDMVKDALRSFVSPPVLSPKCYLYNNHQAKDCIDSFVTHCVRPFCSLIQIHGHNRARQRDKLGHILEEFATLQDEAEKVDAALHTMLLKQEPQRQHLACLGTWVLYHNLRIMIQYLLSGFELELYSMHEYYYIYWYLSEFLYAWLMSTLSRADGSQMAEERIMEEQQKGRSSKKTKKKKKVRPLSREITMSQAYQNMCAGMFKTMVAFDMDGKVREGHHHHHH", "soluble on expression in E. coli": "not soluble"},
      {"sequence": "VKKIGILVLITALLAGIIPKSALAEEPKFNYVDAFAKSILFYEANWCGPDAGNNRIKWRGPCHIEDGKDVGLDLTGGFHDCGDHVKFGLPQCASASTLAWAYHEFSDVFIEKGQDEYMLNILKHFCDYFMKCYPEKNKFYYQVGDGDVDHQYWGPPELQSYDRPTYYVATPENPGSDVAGDTAAALALMYLNYKDRDLEYAEKCLAYAKDIYEFGMTYRGNSKGQSYYLPRDYLDELMWGSLWLYVATGEQKYMDNLEKLMVEKRIGDEAGNSFNDNWTQCWDYVLTGVFIKLATLTDKPLYKQIAEDHLDYWQNRIKSTPGGLKYLDSWGVCKYPAAESMVQLVYYKYTGDKRCLDFAKSQIDYILGDNPKKMSYVVGFGDNYPKFPHHRAASGRLEGPPADETKNDPQRHILYGALVGGADINDEYYDDIDKYVYSETGLDYNAGLVGALAGMSKYFGQGQMPEDTPGIEGEPPVYYADAKIYEENESGITVDLNMYNIVTSPPQYESDLSCRYFVDLSEYAGENIDMSKFVTKVYYSPAGATISELKPYDKEKNIYYVEISFPNPVYARTYVQFCIYYYENKLWDSSNDFSYQGIGDTYKTLENIPIYKNGVLVAGKEPSGAGPVEPTPPPKNYVYGDVNGDGKVNSTDCSIVKRYLLKNIEDFPYEYGKEAGDVNGDGKVNSTDYSLLKRFVLRNIDKFPVEQ", "soluble on expression in E. coli": "not soluble"},
      {"sequence": "MTKYIFVTGGVVSSLGKGITAASLGRLLKNRGLNVTIQKFDPYINVDPGTMSPYQHGEVFVTDDGAETDLDLGHYERFIDINLNKYSNVTTGKIYSAVIRKERRGDYLGGTVQVIPHITNEIKERVFRAGRETNADVVITEIGGTVGDIESLPFLEAIRQIKSDVGRENVMYIHCTLVPYIKAAGEMKTKPTQHSVKELRSLGIQPNVIVVRTEMPMPQEMKEKIALFCDIDPKAVIEARDADTLYAVPLMLQEQKLDQIVCEHLRLNCREADMTEWKALVEKVRNLSKTTKIALVGKYVELPDAYISVVEALRHAGYAFDTDIDIQWINAEHVTRDNVADLLKDADGILVPGGFGDRGVEGKIEAIRYAREQRVPFLGICLGMQLASIEFARHVVGLSGAHSSEFDPNTPHPIIDLLPEQKDVEDLGGTLRLGLYPCKLQEGTLAYAAYGDEVIYERHRHRYEFNNQYRSIMEEHGFVFSGTSPDGRLVEVIELKDHPWFVAAQFHPEFTSRPTRPQPLFREFVRASLKE", "soluble on expression in E. coli": "not soluble"},
      {"sequence": "MPLLDSFKVDHTKMNAPAVRIAKTMLTPKGDNITVFDLRFCIPNKEILSPKGIHTLEHLFAGFMRDHLNGDSIEIIDISPMGCRTGFYMSLIGTPNEQKVSEAWLASMQDVLGVQDQASIPELNIYQCGSYTEHSLEDAHEIAKNVIARGIGVNKNEDLSLDNSLLKGSHHHHHH", "soluble on expression in E. coli": "soluble"},
      {"sequence": "MTQATPFQLPPLALYVHIPWCVRKCPYCDFNSHAAGPELPEEAYVDALLADLEQDLRHVHGRRLGSIFFGGGTPSLFSAKALGRLLEGVERRVGFADGIEITLEANPGTFEQVKFADYRRLGINRLSIGVQSFQADKLQALGRIHDGAEAVRAADMARQAGFDNFNLDLMHGLPGQSLDDALADLRQALALAPTHLSWYQLTMEPNTVFWSQPPELPEDDILWDIQEAGQALLDEHGYRQYETSAYARDGLRARHNLNYWSFGDFLGIGAGAHAKLSAPDGRIVRTWKTRLPKDYLNPQKAFQAGERPLEAADLPFEFMMNVLRLVDGVPAALYPQRTGQPLAAIADACAAARDAGLLADDPQHLRPSERGQLFLNDLLQHFLP", "soluble on expression in E. coli": "not soluble"},
      {"sequence": "MCMDEIKKWKNVKAKKITETLNKRHFKASYVETLEEAKEKLISMIEEGSSVAIGGSTTLSQMGMVDVLRNGNYKFFDRYQNLPFDPDIVEIHRKSLTADYLITGTNAITENGELVNTDCTGNRVAPMIFGPKNVIIVAGINKIVENIDAALKRIREIAPMNSKRIKHETPCVETGFCVDCDCKKRICNFTTIIHNGIKFEGRIKIIIIADELGYLEHHHHHH", "soluble on expression in E. coli": "not soluble"},
      {"sequence": "GPLGSAAAATPAVRTVPQYKYAAGVRNPQQHLNAQPQVTMQQPAVHVQGQEPLTASMLASAPPQEQKQMLGERLFPLIQAMHPTLAGKITGMLLEIDNSELLHMLESPESLRSKVDEAVAVLQAHQAKEAAQKAVNSATGVPTV", "soluble on expression in E. coli": "soluble"},
      {"sequence": "EHMQHLAMKGARFDIVLLPSSPTAHGLEQVQFQVAANKGNPPRPLNKVASGGELARISLALQVVASQYTQVPTLIFDEVDTGIGGGVAEMVGKALRALGRKHQVLAVTHLPQVASCGENHWRVRKHSEGEQTVSEISILDEIQRIEEVARMLGGEVITDTTRQHAAELLQLASKNSLF", "soluble on expression in E. coli": "not soluble"},
      {"sequence": "MPISIQQISYIHPDKEVLFSDLNFAISKGQKLGLVGNNGCGKSTLLQIIAGQLAPSSGVIVRPDDLYYIPQHFGQYDSLTIAQALQIDHKQKALHAILAGDASIENFSILNDDWNIEERSVAALDSWGLGQFPLSYPMNLLSGGEKTRVFLAGMDIHNPSVILMDEPTNHLDSSGRQRLYDWVEKWRSTLLVVSHDRTLLNLLPEICELEKHQISYYGGNYEFYKEQKTLMQEALQQRIEEKEKALRTARKVARETAERRDKQNVRGEKRNLKKGVPRIVLNGLQSKSEKSTAKLTGAHQEKAEKLTDERNQLRSSLSPTAALKTDFNNSGLHTGKILVTAEEINFGYHPDQPQLWQAPLSFQLKSGDRLRIEGGNGSGKTTLLKIITGQLQPLKGTLIQANFTYVYLNQEYSIINDRNSILEQAYAFNGRNLPEHEIKIILNRYLFPASEWDKSCRKLSGGEKMRLAFCCLMISNNMPDMFILDEPTNNLDIQSIEIITATIKNYAGTVIAISHDNYFIQEIGVEQSIFLS", "soluble on expression in E. coli": "not soluble"},
      {"sequence": "ADPAECSIKVMCRFRPLNEAEILRGDKFIPKFKGEETVVIGQGKPYVFDRVLPPNTTQEQVYNACAKQIVKDVLEGYNGTIFAYGQTSSGKTHTMEGKLHDPQLMGIIPRIAHDIFDHIYSMDENLEFHIKVSYFEIYLDKIRDLLDVSKTNLAVHEDKNRVPYVKGCTERFVSSPEEVMDVIDEGKANRHVAVTNMNEHSSRSHSIFLINIKQENVETEKKLSGKLYLVDLAGSEKV", "soluble on expression in E. coli": "soluble"},
      {"sequence": "MGSDKIHHHHHHMQQSTPYLSFRGIGKTFPGVKALTDISFDCYAGQVHALMGENGAGKSTLLKILSGNYAPTTGSVVINGQEMSFSDTTAALNAGVAIIYQELHLVPEMTVAENIYLGQLPHKGGIVNRSLLNYEAGLQLKHLGMDIDPDTPLKYLSIGQWQMVEIAKALARNAKIIAFDEPTSSLSAREIDNLFRVIRELRKEGRVILYVSHRMEEIFALSDAITVFKDGRYVKTFTDMQQVDHDALVQAMVGRDIGDIYGWQPRSYGEERLRLDAVKAPGVRTPISLAVRSGEIVGLFGLVGAGRSELMKGMFGGTQITAGQVYIDQQPIDIRKPSHAIAAGMMLCPEDRKAEGIIPVHSVRDNINISARRKHVLGGCVINNGWEENNADHHIRSLNIKTPGAEQLIMNLSGGNQQKAILGRWLSEEMKVILLDEPTRGIDVGAKHEIYNVIYALAAQGVAVLFASSDLPEVLGVADRIVVMREGEIAGELLHEQADERQALSLAMPKVSQAVA", "soluble on expression in E. coli": "not soluble"}
    ]}
  ]
}
